# Substitutions are numbered along the chain they refer to.
# B1: NVS49-L2A1 (antibody, V domains shown)
# VH: HVQLVQSGGGVKKIGAAVRISCEVTGYKFMDQLINWVRQAPGQGLEWMGWMNPTYGQVNYSWRFEGRVTMTRDMDTETAFMELRGLRVDDTAVYYCARGPSGENYPFHYWGQGVRVVVSS
# VL: ASALTQPASMSASPGQSVTISCSGTRHIISAWFQQYPGKPPKLIIFDDDKRPSGVPSRFSASRPGDTASLTISNVQPEDEATYICNTYEFFGGGTRLTVL
# B2: L2A1_H60SA (antibody, V domains shown)
# VH: B1 VH with S61A
# VL: B1 VL
# B3: L2A1_H58NA (antibody, V domains shown)
# VH: B1 VH with N59A
# VL: B1 VL
# B4: L2A1_H58NQ (antibody, V domains shown)
# VH: B1 VH with N59Q
# VL: B1 VL
# B5: L2A1_H58ND (antibody, V domains shown)
# VH: B1 VH with N59D
# VL: B1 VL
# B6: L2A1_H58NS (antibody, V domains shown)
# VH: B1 VH with N59S
# VL: B1 VL
# B7: L2A1_H60SN (antibody, V domains shown)
# VH: B1 VH with S61N
# VL: B1 VL
# Target: HIV-1 envelope (Env) of virus REJO4541.67 (HIV-1)
# Assay: cell-based or functional assay
row,Binder,"IC50 of viral neutralization (Env.IMC.LucR virus, TZM-BL reporter cells)"
1,B1,0.022 µg/mL
2,B2,0.105 µg/mL
3,B3,0.104 µg/mL
4,B4,0.025 µg/mL
5,B5,0.212 µg/mL
6,B6,0.206 µg/mL
7,B7,0.121 µg/mL

# Target: HIV-1 envelope (Env) of virus AC10.0.29 (HIV-1)
# Assay: cell-based or functional assay
row,Binder,"IC50 of viral neutralization (Env.IMC.LucR virus, TZM-BL reporter cells)"
1,B1,0.306 µg/mL
2,B2,0.072 µg/mL
3,B3,0.098 µg/mL
4,B4,> 50 µg/mL
5,B5,> 50 µg/mL
6,B6,0.091 µg/mL
7,B7,0.087 µg/mL

# Target: HIV-1 envelope (Env) of virus DU172.17 (HIV-1)
# Assay: cell-based or functional assay
row,Binder,"IC50 of viral neutralization (Env.IMC.LucR virus, TZM-BL reporter cells)"
1,B1,0.128 µg/mL
2,B2,0.056 µg/mL
3,B3,0.218 µg/mL
4,B4,2.27 µg/mL
5,B5,20.9 µg/mL
6,B6,0.102 µg/mL
7,B7,0.044 µg/mL

# Target: HIV-1 envelope (Env) of virus CAP45.2.00.G3 (HIV-1)
# Assay: cell-based or functional assay
row,Binder,"IC50 of viral neutralization (Env.IMC.LucR virus, TZM-BL reporter cells)"
1,B1,0.069 µg/mL
2,B2,0.039 µg/mL
3,B3,0.05 µg/mL
4,B6,0.04 µg/mL
5,B7,0.032 µg/mL

# Target: HIV-1 envelope (Env) of virus CNE20 (HIV-1)
# Assay: cell-based or functional assay
row,Binder,"IC50 of viral neutralization (Env.IMC.LucR virus, TZM-BL reporter cells)"
1,B1,0.05 µg/mL
2,B2,0.17 µg/mL
3,B3,> 50 µg/mL
4,B4,> 50 µg/mL
5,B5,> 50 µg/mL
6,B6,> 50 µg/mL
7,B7,0.317 µg/mL

# Target: HIV-1 envelope (Env) of virus WITO4160.33 (HIV-1)
# Assay: cell-based or functional assay
row,Binder,"IC50 of viral neutralization (Env.IMC.LucR virus, TZM-BL reporter cells)"
1,B1,0.213 µg/mL
2,B2,0.148 µg/mL
3,B3,0.259 µg/mL
4,B4,0.222 µg/mL
5,B5,0.65 µg/mL
6,B6,0.182 µg/mL
7,B7,0.212 µg/mL

# Reference: patent US20210040185A1 (ATRECA, published 2021)
